B1: CysR∼CTLD3-Fc of DEC205 [human] / K10-T10 (residue G481-G490), SUMO fusion [human] (parent complex)
chain 1: SGRAANDPFTIVHGNTGKCIKPVYGWIVADDCDETEDKLWKWVSQHRLFHLHSQKCLGLDITKSVNELRMFSCDSSAMLWWKCEHHSLYGAARYRLALKDGHGTAISNASDVWKKGGSEESLCDQPYHEIYTRDGNSYGRPCEFPFLIDGTWHHDCILDEDHSGPWCATTLNYEYDRKWGICLKPENGCEDNWEKNEQFGSCYQFNTQTALSWKEAYVSCQNQGADLLSINSAAELTYLKEKEGIAKIFWIGLNQLYSARGWEWSDHKPLNFLNWDPDRPSAPTIGGSSCARMDAESGLWQSFSCEAQLPYVCRKPLNNTVELTDVWTYSDTRCDAGWLPNNGFCYLLVNESNSWDKAHAKCKAFSSDLISIHSLADVEVVVTKLHNEDIKEEVWIGLKNINIPTLFQWSDGTEVTLTYWDENEPNVPYNKTPNCVSYLGELGQWKVQSCEEKLKYVCKRKGEKLNDASSDKMCPPDEGWKRHGETCYKIYEDEVPFGTNCNLTITSRFEQEYLNDLMKKYDKSLRKYFWTGLRDVDSCGEYNWATVGGRRRAVTFSNWNFLEPASPGGCVAMSTGKSVGKWEVKDCRSFKALSICKKMS
chain 2: GSSGGGHGGG

In this assay the parent is B1. Nature of the assay: ELISA; pH 6.0; protein conc 5 µg/ml (highest point of the titration); parent: 3.9; read off a plot. Background: An ELISA detects its analyte on a solid surface through an enzyme-linked reagent.
As to chain 2 S3R, the response is roughly 2.1 OD 450. On to chain 2 H7R, for which the response was roughly 1.9 OD 450.
